Measurements from US20250270343A1 (Alector, published 2025).

Columns and labels:
[1] = target: T1, soluble cynomolgus GPNMB (recombinant extracellular domain) (cynomolgus, UniProt Q14956 23-499 (human entry), limits assumed); assay: SPR Carterra, Ab immobilized
T1 chain: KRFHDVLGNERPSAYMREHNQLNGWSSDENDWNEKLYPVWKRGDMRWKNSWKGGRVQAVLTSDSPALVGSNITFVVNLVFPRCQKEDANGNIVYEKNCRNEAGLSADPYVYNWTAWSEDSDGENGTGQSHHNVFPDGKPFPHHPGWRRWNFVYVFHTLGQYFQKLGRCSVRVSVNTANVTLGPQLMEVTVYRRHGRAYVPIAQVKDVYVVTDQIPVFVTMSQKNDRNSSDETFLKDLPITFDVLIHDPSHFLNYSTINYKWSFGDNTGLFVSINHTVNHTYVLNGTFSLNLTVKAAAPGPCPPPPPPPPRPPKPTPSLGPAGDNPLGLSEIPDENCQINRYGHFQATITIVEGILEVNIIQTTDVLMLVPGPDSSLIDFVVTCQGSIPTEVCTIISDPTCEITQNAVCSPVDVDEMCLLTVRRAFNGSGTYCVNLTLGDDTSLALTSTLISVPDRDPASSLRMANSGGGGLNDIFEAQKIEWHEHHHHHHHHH
In short: (§1)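 Analyte series of GPNMB extracellular domain (2.5, 7.4, 22, 67, 200, 600 nM) flowed in ascending order, no regeneration, over IgG1 antibodies EDC/NHS-immobilized on an HC200M array. HBS-EP+ plus 0.5 mg/ml BSA as running buffer, two blanks per series. Affinity estimated via high-throughput kinetic fitting.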

[2] = target: T2, soluble human GPNMB (recombinant extracellular domain) (human, UniProt Q14956 23-498); assay: SPR Carterra, Ab immobilized
T2 construct: also called huGPNMB; recombinant human GPNMB extracellular domain; not shown: C-terminal polyhistidine or Avi-His tag
T2 sequence: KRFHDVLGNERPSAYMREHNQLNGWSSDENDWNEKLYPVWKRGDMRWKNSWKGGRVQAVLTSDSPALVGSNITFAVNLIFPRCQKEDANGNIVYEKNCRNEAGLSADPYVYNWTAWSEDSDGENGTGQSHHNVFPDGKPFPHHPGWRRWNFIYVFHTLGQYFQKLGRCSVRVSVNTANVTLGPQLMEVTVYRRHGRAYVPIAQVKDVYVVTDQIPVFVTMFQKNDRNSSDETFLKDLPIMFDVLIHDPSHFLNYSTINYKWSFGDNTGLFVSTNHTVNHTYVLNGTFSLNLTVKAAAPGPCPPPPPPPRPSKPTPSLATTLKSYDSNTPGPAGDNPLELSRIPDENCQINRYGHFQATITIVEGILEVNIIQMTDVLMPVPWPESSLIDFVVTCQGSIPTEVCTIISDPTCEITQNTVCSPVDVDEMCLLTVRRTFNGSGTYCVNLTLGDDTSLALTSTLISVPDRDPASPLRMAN
In short: as §1

[3] = target: T3, mouse GPNMB endogenously expressed on B16F10 cells (mouse, UniProt Q99P91 23-574); assay: FACS, B16F10 cells
T3 construct: whole, on cells; also called moGPNMB
T3 sequence (looked up): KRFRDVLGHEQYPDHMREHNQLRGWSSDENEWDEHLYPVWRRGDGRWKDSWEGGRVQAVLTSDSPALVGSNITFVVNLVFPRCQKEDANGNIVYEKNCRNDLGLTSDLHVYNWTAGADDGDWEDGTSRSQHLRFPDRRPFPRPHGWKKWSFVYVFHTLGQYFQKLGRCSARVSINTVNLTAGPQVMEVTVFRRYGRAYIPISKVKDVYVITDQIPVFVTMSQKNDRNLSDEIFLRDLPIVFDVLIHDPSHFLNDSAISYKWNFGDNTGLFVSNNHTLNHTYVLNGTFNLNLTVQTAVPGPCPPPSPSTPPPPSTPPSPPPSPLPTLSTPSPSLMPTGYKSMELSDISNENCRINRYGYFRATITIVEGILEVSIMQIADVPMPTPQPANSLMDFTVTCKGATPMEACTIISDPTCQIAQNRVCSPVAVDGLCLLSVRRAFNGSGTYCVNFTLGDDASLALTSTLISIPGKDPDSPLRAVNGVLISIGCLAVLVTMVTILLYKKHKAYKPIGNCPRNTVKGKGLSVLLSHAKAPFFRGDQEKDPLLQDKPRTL
In short: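 Flow cytometry MFI after two-step staining on ice: anti-GPNMB antibody for 30 min, then APC-conjugated anti-human IgG (1 μg/ml) for 30 min. Buffer was PBS with 2% FBS and 2 mM EDTA; 100,000 cells per well.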

B1: anti-GPNMB antibody GPN-06 (antibody, human IgG1, V domains shown)
VH: QVQLQQSGAELVKPGASVKLSCKASGYTFTNYYMYWVKQRPGQGLEWIGEINTRNGGTNFNEKFKSKATLTVDKSSSTAYMQLSSLTSEDSAVYYCTTGFAYWGQGTLVTVSA
VL: DIQMTQSPASLSASVGETVTITCRASENIYSYLVWYQQNQGKSPQLLVYNAKTLAEGVPSRFSGSGSGTQFSLKINSLQPEDFGTYYCQHHYGTPFTFGSGTKLEIK
notes: chimeric
Kd [1]: 97.9 nM
koff [1]: 0.0021 s⁻¹
kon [1]: 21000 M⁻¹ s⁻¹
Kd [2]: 73.9 nM
koff [2]: 0.0032 s⁻¹
kon [2]: 54000 M⁻¹ s⁻¹
MFI fold over background [3]: 1 fold

B2: anti-GPNMB antibody GPN-52 (antibody, human IgG1, V domains shown)
VH: DVQLQESGPGLVKPSQTVFLTCTVTGISITTGNYRWSWIRQFPGNKLEWIGYIYYSGTITYNPSLTSRITITRDTPKNEFFLEMNSLTAEDTATYYCARDLTHWYFDVWGTGTTVTVSS
VL: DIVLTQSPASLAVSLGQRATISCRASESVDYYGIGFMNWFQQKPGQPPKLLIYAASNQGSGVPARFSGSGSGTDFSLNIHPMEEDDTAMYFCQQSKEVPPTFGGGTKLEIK
notes: chimeric
Kd [1]: 40.1 nM
koff [1]: 0.0036 s⁻¹
kon [1]: 90000 M⁻¹ s⁻¹
Kd [2]: 37.9 nM
koff [2]: 0.0032 s⁻¹
kon [2]: 86000 M⁻¹ s⁻¹
MFI fold over background [3]: 3.4 fold
